The source of these data is patent US20140087995A1 (published 2014).

Experiment [1] has as its target T1, rat amylin receptor (rat calcitonin receptor with rat RAMP 3) (rat, UniProt P32214 25-516; Q9JJ73 23-147).
T1 construct: whole, on cells; Used as membranes prepared from the transfected cells; also called rAmylin-R; rAmylin
T1 sequence (looked up) 1: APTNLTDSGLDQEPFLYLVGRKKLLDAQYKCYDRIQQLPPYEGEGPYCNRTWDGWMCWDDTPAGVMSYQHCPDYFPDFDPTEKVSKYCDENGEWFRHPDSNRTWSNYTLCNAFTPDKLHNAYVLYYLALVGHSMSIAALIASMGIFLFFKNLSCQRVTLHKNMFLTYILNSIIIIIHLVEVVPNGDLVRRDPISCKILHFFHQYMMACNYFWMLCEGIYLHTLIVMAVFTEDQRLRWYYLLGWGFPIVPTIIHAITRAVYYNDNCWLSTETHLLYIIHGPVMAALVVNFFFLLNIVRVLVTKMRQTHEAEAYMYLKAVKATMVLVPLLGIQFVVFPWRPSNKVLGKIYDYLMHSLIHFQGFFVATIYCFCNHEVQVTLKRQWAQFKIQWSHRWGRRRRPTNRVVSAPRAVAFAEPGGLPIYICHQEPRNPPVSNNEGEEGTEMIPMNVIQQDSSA
T1 sequence (looked up) 2: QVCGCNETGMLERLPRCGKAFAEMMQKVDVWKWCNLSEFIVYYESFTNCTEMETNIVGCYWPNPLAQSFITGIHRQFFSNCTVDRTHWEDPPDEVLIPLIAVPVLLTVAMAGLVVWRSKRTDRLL
Briefly: SPA competition with 125I-rat amylin, membranes with rat calcitonin receptor + rat RAMP3 (Assay VI).

In experiment [2] the target is T2, rat calcitonin receptor (rat, UniProt P32214 25-516).
T2 construct: whole, on cells; Used as membranes prepared from the transfected cells; also called rCTR; rCT
T2 sequence (looked up): T1 sequence (looked up) 1
The experiment is described as follows: ratio of binding IC50 at rat calcitonin receptor to IC50 at rat amylin receptor (reference).

In experiment [3] the target is T3, human calcitonin receptor (human, UniProt P30988 25-474).
T3 construct: whole, on cells; Used as membranes prepared from the transfected cells; also called hCTR; hCT
T3 sequence (looked up): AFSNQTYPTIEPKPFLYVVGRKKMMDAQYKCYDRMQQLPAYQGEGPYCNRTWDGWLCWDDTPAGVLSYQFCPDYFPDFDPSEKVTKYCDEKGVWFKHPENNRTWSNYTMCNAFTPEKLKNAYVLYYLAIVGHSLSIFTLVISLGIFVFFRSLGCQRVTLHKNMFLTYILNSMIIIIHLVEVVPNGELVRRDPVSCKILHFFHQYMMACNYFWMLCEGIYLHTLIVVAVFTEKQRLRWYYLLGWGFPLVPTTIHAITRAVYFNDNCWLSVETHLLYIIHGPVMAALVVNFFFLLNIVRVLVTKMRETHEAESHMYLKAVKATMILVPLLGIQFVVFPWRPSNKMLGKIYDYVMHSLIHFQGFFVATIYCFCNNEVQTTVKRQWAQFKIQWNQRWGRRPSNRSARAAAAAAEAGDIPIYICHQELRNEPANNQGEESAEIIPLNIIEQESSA
Briefly: ratio of binding IC50 at human calcitonin receptor to IC50 at human amylin receptor (reference). In short, it runs like this:
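Scintillation proximity competition binding on cell membranes at 35 ng/μL with SPA beads, in 50 mM Hepes pH 7.4, 1 mM CaCl2, 5 mM MgCl₂, 0.1% OA, 0.02% Tween20. Incubated 120 min at 25° C with shaking. IC₅₀ from one-site competition fit.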

Experiment [4] concerns the target T2, rat calcitonin receptor. The experiment is described as follows: SPA competition with 125I-calcitonin, membranes with rat calcitonin receptor (Assay VIII).
For experiment [5], the target named is T4, rat calcitonin receptor (rat, UniProt P32214 25-516).
T4 construct: whole, on cells; In cell membranes prepared from transiently transfected BHK tk'ts 13 cells (Assay VIII); also called rCTR; rat calcitonin (a) receptor
T4 sequence (looked up): T1 sequence (looked up) 1
Briefly: SPA competition binding, displacement of 125I-Calcitonin from membranes of BHK tk'ts 13 cells with rat calcitonin receptor (Assay VIII). Background: Loss of bound radioactivity is the signal in a displacement assay; it reports binding, not function.

For experiment [6], the target named is T5, rat amylin receptor (rat calcitonin receptor + rat RAMP 3) (rat, UniProt P32214 25-516; Q9JJ73 23-147).
T5 construct: whole, on cells; Receptor complex in cell membranes prepared from transiently transfected BHK tk'ts 13 cells (Assay VI); also called rAmylin-R; rat amylin 3(a) receptor
T5 sequence (looked up) 1: T1 sequence (looked up) 1
T5 sequence (looked up) 2: T1 sequence (looked up) 2
The experiment is described as follows: SPA competition binding, displacement of 125I-rat amylin from membranes of BHK tk'ts 13 cells with rat calcitonin receptor + rat RAMP 3 (Assay VI).

The target in experiment [7] is T4, rat calcitonin receptor. Briefly: ratio of binding IC50s: rat calcitonin receptor (Assay VIII) over rat amylin receptor (Assay VI).
Experiment [8] addresses T6, human calcitonin receptor (human, UniProt P30988 25-474).
T6 construct: whole, on cells; Cell membranes from the stably transfected cell line (Assay VII); also called hCTR; hCT
T6 sequence (looked up): T3 sequence (looked up)
Briefly: ratio of binding IC50s: human calcitonin receptor (Assay VII) over human amylin receptor (Assay V). The method, then: The resulting pellet was resuspended, homogenized and centrifuged (20.000 rpm, 15 min) in a buffer containing 20 mM Na-HEPES and 0.1 mM EDTA (pH 7.4, buffer 2). The resulting pellet was resuspended in buffer 2 and protein concentration was measured (BCA protein Assay, Pierce). The homogenate was kept cold during the whole procedure. The membranes were kept at −80° C. until use. The assay was performed in a 384 well Optiplate (PerkinElmer) in a total volume of 40 ul. Membranes were mixed with SPA beads. Final concentration of membranes 35 ng/μL final and SPA beads was 0.05 mg/well. Test-compounds were dissolved in DMSO and further diluted in assay buffer (50 mM Hepes, pH 7.4, 1 mM CaCl2, 5 mM MgCl₂, 0.1% OA and 0.02% Tween20). […] The final mixture was incubated with shaking at 400 rpm for 120 min at 25° C. prior to centrifugation (1500 rpm, 10 min). Samples were analyzed on TopCounter™ (Packard). The IC₅₀ was calculated using (one site binding competition analysis) GraphPad Prism5 as a measure of receptor affinity.
Membranes were prepared in the following way; the cells were rinsed with PBS and incubated with Versene for approximately 5 min before harvesting. The cells were flushed with PBS and the cell-suspension was centrifuged for 5 min at 1000 rpm. Cells were homogenized (Ultrathurrax) in a buffer containing 20 mM Na-HEPES and 10 mM EDTA (pH 7.4) and centrifuged at 20.000 rpm for 15 min. The resulting pellet was resuspended, homogenized and centrifuged (20.000 rpm, 15 min) in a buffer containing 20 mM Na-HEPES and 0.1 mM EDTA (pH 7.4, buffer 2). The resulting pellet was resuspended in buffer 2 and protein concentration was measured (BCA protein Assay, Pierce). The homogenate was kept cold during the whole procedure. The membranes were kept at −80° C. until use. Assay was performed in a 384 well Optiplate (PerkinElmer) in a total volume of 40 ul. Membranes were mixed with SPA beads.

Numbered stars: 1 amine (or outer) side, 2 acyl side, 3 side chain; on linkers, the order of the positions; unused ones are H or OH. Bridge positions count the residues as written; N and C are the ends. Side chains are listed from the residue outwards. Ends that are not written are not given here. * marks the point of attachment. C20 diacid = O=C(O)CCCCCCCCCCCCCCCCCCC(=O)*; γGlu = O=C(O)[C@H](CCC(=O)[*:2])N[*:1]; AEEA = NCCOCCOCC(=O)O

B1: N^ε1-[2-[2-[2-[[2-[2-[2-[[(4S)-4-carboxy-4-(19-carboxynonadecanoylamino)butanoyl]amino]ethoxy]ethoxy]acetyl]amino]ethoxy]ethoxy]acetyl]-[Arg17,Pro21,Pro27,Arg34 … (peptide)
peptide: K([AEEA-AEEA-γGlu-C20 diacid])CNTATCATQRLANFLRHSSPNFGAIPSSTNVGRNTY-NH2
modifications: disulfide 2-7; N-terminus assumed
SMILES: CC[C@H](C)[C@H](NC(=O)[C@H](C)NC(=O)CNC(=O)[C@H](Cc1ccccc1)NC(=O)[C@H](CC(N)=O)NC(=O)[C@@H]1CCCN1C(=O)[C@H](CO)NC(=O)[C@H](CO)NC(=O)[C@H](Cc1c[nH]cn1)NC(=O)[C@H](CCCNC(=N)N)NC(=O)[C@H](CC(C)C)NC(=O)[C@H](Cc1ccccc1)NC(=O)[C@H](CC(N)=O)NC(=O)[C@H](C)NC(=O)[C@H](CC(C)C)NC(=O)[C@H](CCCNC(=N)N)NC(=O)[C@H](CCC(N)=O)NC(=O)[C@@H](NC(=O)[C@H](C)NC(=O)[C@@H]1CSSC[C@H](NC(=O)[C@@H](N)CCCCNC(=O)COCCOCCNC(=O)COCCOCCNC(=O)CC[C@H](NC(=O)CCCCCCCCCCCCCCCCCCC(=O)O)C(=O)O)C(=O)N[C@@H](CC(N)=O)C(=O)N[C@@H]([C@@H](C)O)C(=O)N[C@@H](C)C(=O)N[C@@H]([C@@H](C)O)C(=O)N1)[C@@H](C)O)C(=O)N1CCC[C@H]1C(=O)N[C@@H](CO)C(=O)N[C@@H](CO)C(=O)N[C@H](C(=O)N[C@@H](CC(N)=O)C(=O)N[C@H](C(=O)NCC(=O)N[C@@H](CCCNC(=N)N)C(=O)N[C@@H](CC(N)=O)C(=O)N[C@H](C(=O)N[C@@H](Cc1ccc(O)cc1)C(N)=O)[C@@H](C)O)C(C)C)[C@@H](C)O
notes: Analogue of human amylin; disulfide and C-terminal amide as told for h-amylin; also called compound 95
What is called IC50 is the concentration needed to halve the response being measured. In the case of B1, the concentration for half-maximal inhibition (IC50) in experiment [1] is 5.45 nM; in experiment [4], 388 nM. Moreover, the “Ratio rCT/rAmylin binding” value in experiment [2] is 71.3. In addition, the “Ratio hCT/hAmylin binding” value in experiment [3] turned out to be 63.4.

B2: N^ε1-[2-[2-[2-[[2-[2-[2-[[(4S)-4-carboxy-4-(19-carboxynonadecanoylamino)butanoyl]amino]ethoxy]ethoxy]acetyl]amino]ethoxy]ethoxy]acetyl]-[Arg17,Pro21,Pro27,His34 … (peptide)
peptide: K([AEEA-AEEA-γGlu-C20 diacid])CNTATCATQRLANFLRHSSPNFGAIPSSTNVGHNTY-NH2
modifications: disulfide 2-7; N-terminus assumed
SMILES: CC[C@H](C)[C@H](NC(=O)[C@H](C)NC(=O)CNC(=O)[C@H](Cc1ccccc1)NC(=O)[C@H](CC(N)=O)NC(=O)[C@@H]1CCCN1C(=O)[C@H](CO)NC(=O)[C@H](CO)NC(=O)[C@H](Cc1c[nH]cn1)NC(=O)[C@H](CCCNC(=N)N)NC(=O)[C@H](CC(C)C)NC(=O)[C@H](Cc1ccccc1)NC(=O)[C@H](CC(N)=O)NC(=O)[C@H](C)NC(=O)[C@H](CC(C)C)NC(=O)[C@H](CCCNC(=N)N)NC(=O)[C@H](CCC(N)=O)NC(=O)[C@@H](NC(=O)[C@H](C)NC(=O)[C@@H]1CSSC[C@H](NC(=O)[C@@H](N)CCCCNC(=O)COCCOCCNC(=O)COCCOCCNC(=O)CC[C@H](NC(=O)CCCCCCCCCCCCCCCCCCC(=O)O)C(=O)O)C(=O)N[C@@H](CC(N)=O)C(=O)N[C@@H]([C@@H](C)O)C(=O)N[C@@H](C)C(=O)N[C@@H]([C@@H](C)O)C(=O)N1)[C@@H](C)O)C(=O)N1CCC[C@H]1C(=O)N[C@@H](CO)C(=O)N[C@@H](CO)C(=O)N[C@H](C(=O)N[C@@H](CC(N)=O)C(=O)N[C@H](C(=O)NCC(=O)N[C@@H](Cc1c[nH]cn1)C(=O)N[C@@H](CC(N)=O)C(=O)N[C@H](C(=O)N[C@@H](Cc1ccc(O)cc1)C(N)=O)[C@@H](C)O)C(C)C)[C@@H](C)O
notes: Analogue of human amylin; disulfide and C-terminal amide as told for h-amylin; also called compound 97
Turning to B2, the results for the 50% inhibitory concentration (IC50) in experiment [1] and in experiment [4] were 2.24 nM and 159 nM, respectively. Further, the “Ratio rCT/rAmylin binding” value in experiment [2] was 71.1. The “Ratio hCT/hAmylin binding” value in experiment [3] stood at 104.

B3: N^ε1-[(4S)-4-carboxy-4-[[(4S)-4-carboxy-4-(19-carboxynonadecanoylamino)butanoyl]amino]butanoyl]-[Glu14,Arg17,Pro21,Pro27,Pro34,Phe37]-h-amylin (peptide)
peptide: K([γGlu-γGlu-C20 diacid])CNTATCATQRLAEFLRHSSPNFGAIPSSTNVGPNTF-NH2
modifications: disulfide 2-7; N-terminus assumed
SMILES: CC[C@H](C)[C@H](NC(=O)[C@H](C)NC(=O)CNC(=O)[C@H](Cc1ccccc1)NC(=O)[C@H](CC(N)=O)NC(=O)[C@@H]1CCCN1C(=O)[C@H](CO)NC(=O)[C@H](CO)NC(=O)[C@H](Cc1c[nH]cn1)NC(=O)[C@H](CCCNC(=N)N)NC(=O)[C@H](CC(C)C)NC(=O)[C@H](Cc1ccccc1)NC(=O)[C@H](CCC(=O)O)NC(=O)[C@H](C)NC(=O)[C@H](CC(C)C)NC(=O)[C@H](CCCNC(=N)N)NC(=O)[C@H](CCC(N)=O)NC(=O)[C@@H](NC(=O)[C@H](C)NC(=O)[C@@H]1CSSC[C@H](NC(=O)[C@@H](N)CCCCNC(=O)CC[C@H](NC(=O)CC[C@H](NC(=O)CCCCCCCCCCCCCCCCCCC(=O)O)C(=O)O)C(=O)O)C(=O)N[C@@H](CC(N)=O)C(=O)N[C@@H]([C@@H](C)O)C(=O)N[C@@H](C)C(=O)N[C@@H]([C@@H](C)O)C(=O)N1)[C@@H](C)O)C(=O)N1CCC[C@H]1C(=O)N[C@@H](CO)C(=O)N[C@@H](CO)C(=O)N[C@H](C(=O)N[C@@H](CC(N)=O)C(=O)N[C@H](C(=O)NCC(=O)N1CCC[C@H]1C(=O)N[C@@H](CC(N)=O)C(=O)N[C@H](C(=O)N[C@@H](Cc1ccccc1)C(N)=O)[C@@H](C)O)C(C)C)[C@@H](C)O
As to B3, the IC50 in experiment [5] amounted to 23.4 nM; in experiment [6], 0.205 nM. Besides, the “Ratio rCT/rAmylin binding” value in experiment [7] was 114. Further, the “Ratio hCT/hAmylin binding” value in experiment [8] turned out to be 18.

As for K([γGlu-γGlu-C20 diacid])CNTATCATQRLAEFLRHSSNNPGAILSSTNVGPETY-NH2 (disulfide 2-7), the IC50 in experiment [5] worked out at 86.8 nM; in experiment [6] it was 0.659 nM. In experiment [7], the “Ratio rCT/rAmylin binding” value was 132. Also, the “Ratio hCT/hAmylin binding” value in experiment [8] stood at 7.8.
